# Experimental data from publication PMC3575409, “Identification of a Novel Protein-Protein Interaction Motif Mediating Interaction of GPCR-Associated Sorting Proteins with G Protein-Coupled Receptors” (PLoS ONE, 2013).
# Legend:
# [1] = target: full-length ADRB2 (β2 adrenergic receptor); assay: SPR saturation binding, ADRB2; set-up: species or system human
# Protocol: The human ADRB2 and CNR2 receptors were produced using the P. pastoris expression system as previously described, [16]. After methanol-induced receptor expression, cells were washed with PBS pH 7.0 and resuspended in ice-cold buffer A (50 mM Tris-HCl pH 7.4, 500 mM NaCl, 10% glycerol, 5 mM EDTA, 1 mM PMSF, 2 mM DDT). Cells were then lysed with two cycles of 20 s shaking and 20 s cooling on ice using 0.5 mm glass beads in a FastPrep 24 device. Unbroken cells and cell debris were removed by centrifugation (3000 g, 5 min, 4°C) and the membrane fraction from the supernatant was pelleted by ultracentrifugation (100,000 g, 45 min, 4°C). […] Finally membranes were resuspended in buffer B and quantified with the bicinchoninic acid (BCA) method (Pierce).
# Approximately 150 mg membrane proteins were extracted by 5 min incubation at room temperature in buffer C (50 mM Tris-HCl pH 7.4, 500 mM NaCl, 10% glycerol, 1 mM PMSF, 2 mM DTT, 50 mM imidazole, 1% (w/v) DDM, 0.1% (w/v) CHS). […] Imidazole was removed from the eluted fraction using a HiTrap 5 ml desalting column (GE Healthcare), purified proteins were quantified using the BCA assay (Pierce) and receptor integrity was analyzed by SDS-PAGE. […]
# [2] = tested on: GFP-tagged M1 receptor in HEK293 cells; assay: Co-immunoprecipitation, M1; type: cell-based; conditions: 48 h expression, anti-GFP immunoprecipitation
# Protocol: HEK293 cells stably expressing N-terminal GFP-tagged ADRB1, ADRB2, CALCR and M1 or MyrPalm-mYFP were transfected with pcDNA3.1 containing the sequence for a central domain of GASP-1 (AA 380 to 1073) using JetPEI reagent (polyplus transfection) according to the instructions from the manufacturer. After 48 h of expression, cells were washed twice with PBS and lysed in a buffer containing 10 mM Tris-HCl, pH 7.4, 150 mM NaCl, 25 mM KCl, 0.3% Triton X-100 and cOmplete protease inhibitors (Roche) for 1 h at 4°C under agitation. 500 µg of cleared lysates were incubated with 1 µg of a mouse monoclonal anti-GFP antibody (Invitrogen) overnight at 4°C, followed by an incubation with 40 µl of protein A-Sepharose beads for an additional 2 h at 4°C. Beads were then washed five times in lysis buffer and precipitates were resolved on an 8% gel by SDS–PAGE and electrotransferred to immobilon-P membranes (Millipore) in 50 mM Tris-boric acid for 1 h at 300 mA. Membranes were blocked with 5% non-fat powder milk in TBS-Tween (50 mM Tris-HCl pH 8, 150 mM NaCl, 0.4% Tween-20) for 1 h at room temperature. […] For immunodetection of GASP or GFP-tagged receptors directly from cell lysates, 10 µg of proteins were loaded on SDS gels and analyzed following the procedure described above. Finally, membranes were washed in TBS-Tween and detected by chemiluminescence (ECL prime, GE Healthcare). […]
molecule,measurement,setting,value
"central domain of GASP-1: central portion of GASP-1 (AA 380 to 1073) that contains 19 GASP motif (protein, left off: GST, N-terminal, kept, central portion of GASP-1 (AA 380 to 1073) that contains 19 GASP motif) MTKEEAKTKARARAKQEARSEEEALIGTWFWATDESSMADEASIESSLQVEDESIIGSWFWTEEEASMGTGASSKSRPRTDGERIGDSLFGAREKTSMKTGAEATSESILAADDEQVIIGSWFWAGEEVNQEAEEETIFGSWFWVIDAASVESGVGVSCESRTRSEEEEVIGPWFWSGEQVDIEAGIGEEARPGAEEETIFGSWFWAENQTYMDCRAETSCDTMQGAEEEEPIIGSWFWTRVEACVEGDVNSKSSLEDKEEAMIPCFGAKEEVSMKHGTGVRCRFMAGAEETNNKSCFWAEKEPCMYPAGGGSWKSRPEEEEDIVNSWFWSRKYTKPEAIIGSWLWATEESNIDGTGEKAKLLTEEETIINSWFWKEDEAISEATDREESRPEAEEGDIIGSWFWAGEEDRLEPAAETREEDRLAAEKEGIVGSWFGAREETIRREAGSCSKSSPKAEEEEVIIGSWFWEEEASPEAVAGVGFESKPGTEEEEITVGSWFWPEEEASIQAGSQAVEEMESETEEETIFGSWFWDGKEVSEEAGPCCVSKPEDDEEMIVESWFWSRDKAIKETGTVATCESKPENEEGAIVGSWFEAEDEVDNRTDNGSNCGSRTLADEDEAIVGSWFWAGDEAHFESNPSPVFRAICRSTCSVEQEPDPSRRPQSWEEVTVQFKPGPWGRVGFPSISPFRFPKE",kinetics of the interaction,[1],very stable and had a slow association rate
same,co-immunoprecipitation with M1,[2],co-immunoprecipitated
